Data taken from PMC2686265, “ATP and MO25α Regulate the Conformational State of the STRADα Pseudokinase and Activation of the LKB1 Tumour Suppressor” (PLoS Biology, 2009).
Where two headings read alike, the source gives them in different places.

Assays:
Assay in all cases: SPR BIAcore binding of STRADα to immobilised MO25α
MO25α (M260A) = target: T1, MO25α (M260A) (Homo sapiens, UniProt Q7RTN6+Q9Y376, M260A)
T1 construct: wild-type and mutant forms of STRADα (residues 54–431) and MO25α (residues 1–341) were expressed individually as GST fusion proteins in E. coli; GST (cleaved yes); made in house; host or cells: E. coli
T1 sequence (Q9Y376 1-341 M260A): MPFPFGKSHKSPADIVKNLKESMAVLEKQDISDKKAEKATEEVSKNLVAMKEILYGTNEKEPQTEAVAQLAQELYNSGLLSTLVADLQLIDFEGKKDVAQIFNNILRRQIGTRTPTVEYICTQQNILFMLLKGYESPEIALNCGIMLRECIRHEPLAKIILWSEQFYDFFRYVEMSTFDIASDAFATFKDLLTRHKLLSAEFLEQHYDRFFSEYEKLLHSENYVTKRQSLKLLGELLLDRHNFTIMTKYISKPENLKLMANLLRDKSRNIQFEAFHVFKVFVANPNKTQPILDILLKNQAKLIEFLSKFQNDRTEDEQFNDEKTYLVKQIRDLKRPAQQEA
T1 sequence (Q7RTN6 59-431): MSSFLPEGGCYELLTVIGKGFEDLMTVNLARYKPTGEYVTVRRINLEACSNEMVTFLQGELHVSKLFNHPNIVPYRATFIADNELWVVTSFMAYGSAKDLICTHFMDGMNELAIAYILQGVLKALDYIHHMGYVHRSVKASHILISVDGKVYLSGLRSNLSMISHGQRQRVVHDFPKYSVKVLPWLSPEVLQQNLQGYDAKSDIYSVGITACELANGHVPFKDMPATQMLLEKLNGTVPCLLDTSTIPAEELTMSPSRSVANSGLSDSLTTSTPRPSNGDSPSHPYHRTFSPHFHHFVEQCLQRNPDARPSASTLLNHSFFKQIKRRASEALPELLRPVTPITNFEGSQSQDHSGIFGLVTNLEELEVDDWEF
Description: (§1) SPR measurements were performed using a BIAcore T100 instrument. Wild-type and mutant forms of MO25α were immobilized on a CM5 sensor chip using standard amine-coupling chemistry, and 10 mM HBS (pH 7.4) was used as the running buffer. The carboxymethyl dextran surface was activated with a 7-min injection of a 1∶1 ratio of 0.4 M 1-ethyl-3-(3-dimethylaminopropyl) carbodiimide hydrochloride (EDC)/0.1 M N-hydroxy succinimide (NHS). MO25α (5–7 µM) was coupled to the surface with a 1-min injection of protein diluted in 10 mM sodium acetate (pH 5.5). Remaining activated groups were blocked with a 7-min injection of 1 M ethanolamine (pH 8.5). MO25α was immobilised on three flow cells of a CM5 chip at densities 1,700–2,500 RU performed at 25°C, leaving one flow cell as a reference to subtract any possible nonspecific binding.
(§2) STRADα was prepared in running buffer containing 50 mM Tris (pH 7.8), 50 mM NaCl, 270 mM sucrose, 1 mM DTT, 0.005% P20, and 0.1 mg/ml BSA in the presence/absence of 100 µM ATP and 1 mM MgCl2, and injected over all four surfaces at nine concentrations of a 3-fold concentration series (5 µM to […]). Each concentration was injected in duplicate over all surfaces. Association was measured for 60 s at a flow rate of 50 µl/min, and dissociation was measured for 3 min. STRADα dissociated completely from the MO25α surfaces, thus eliminating the need for a regeneration step.
(§3) Data were analysed using Scrubber 2 (BioLogic Software) and CLAMP software. Data were double referenced to the reference surface to subtract any possible nonspecific binding and to the blank buffer injections to subtract drift of the target from surface. Data were fitted to a 1∶1 or 2∶1 binding site model where appropriate. Kinetic association (k a) and dissociation rate (k d) constants were separately determined from the BIAcore sensorgrams, and equilibrium dissociation constants (K d) were calculated as: K d1 = k d1/k a1 and K d2 = k d2/k a2. Equilibrium constants were also independently calculated from a saturation binding curve, by fitting the measured response (R) from specific binding to the following equation: R = (R max1[STRAD]/([STRAD]+K d1))+(R max2[STRAD]/([STRAD]+K d2)), where R max1 and R max2 are the relative maximal changes in response for sites 1 and 2, respectively, and K d1 and K d2 are the equilibrium dissociation constants for sites 1 and 2, respectively. Dose-response curves for calculating the Hill slope (H) of the data were fitted with the following equation: R = minimum+(maximum−minimum)/(1+10^((logEC50−[STRAD])×H)) using GraphPad-PRISM software.

MO25α (R227A) = target: T2, MO25α (R227A) (Homo sapiens, UniProt Q7RTN6+Q9Y376, R227A)
T2 construct: wild-type and mutant forms of STRADα (residues 54–431) and MO25α (residues 1–341) were expressed individually as GST fusion proteins in E. coli; GST (cleaved yes); made in house; host or cells: E. coli
T2 sequence (Q9Y376 1-341 R227A): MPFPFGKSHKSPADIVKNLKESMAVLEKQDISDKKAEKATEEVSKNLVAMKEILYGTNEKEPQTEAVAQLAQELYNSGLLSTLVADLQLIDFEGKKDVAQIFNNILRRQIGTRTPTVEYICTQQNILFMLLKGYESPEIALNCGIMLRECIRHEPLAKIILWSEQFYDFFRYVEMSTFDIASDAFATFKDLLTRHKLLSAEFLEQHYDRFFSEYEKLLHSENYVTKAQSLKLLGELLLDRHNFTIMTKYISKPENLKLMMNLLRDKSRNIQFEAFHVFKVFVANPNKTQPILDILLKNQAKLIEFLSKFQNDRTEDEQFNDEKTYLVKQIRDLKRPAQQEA
T2 sequence (Q7RTN6 59-431): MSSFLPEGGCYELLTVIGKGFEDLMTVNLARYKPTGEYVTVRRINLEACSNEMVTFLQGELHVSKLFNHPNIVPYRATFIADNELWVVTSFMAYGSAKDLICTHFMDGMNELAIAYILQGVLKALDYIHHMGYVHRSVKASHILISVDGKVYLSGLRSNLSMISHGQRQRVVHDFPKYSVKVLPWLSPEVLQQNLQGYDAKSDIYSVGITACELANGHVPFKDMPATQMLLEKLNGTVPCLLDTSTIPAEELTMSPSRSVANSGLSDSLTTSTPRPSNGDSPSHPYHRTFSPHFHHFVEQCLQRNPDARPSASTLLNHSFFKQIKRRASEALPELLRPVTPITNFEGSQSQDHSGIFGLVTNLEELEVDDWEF
Description: as §1, §2, §3

MO25α (R227A/M260A) = target: T3, MO25α (R227A/M260A) (Homo sapiens, UniProt Q9Y376, M260A/R227A); conditions: even in the presence of ATP
T3 construct: wild-type and mutant forms of STRADα (residues 54–431) and MO25α (residues 1–341) were expressed individually as GST fusion proteins in E. coli; GST (cleaved yes); made in house; host or cells: E. coli
Description: as §1, §2, §3

MO25α (WT) = target: T4, MO25α (WT) (Homo sapiens, UniProt Q7RTN6+Q9Y376)
T4 construct: wild-type and mutant forms of STRADα (residues 54–431) and MO25α (residues 1–341) were expressed individually as GST fusion proteins in E. coli; GST (cleaved yes); made in house; host or cells: E. coli (STRADα: BL21(DE3)pLysS, co-expressed with MO25α and then separated from it)
T4 sequence (Q9Y376 1-341): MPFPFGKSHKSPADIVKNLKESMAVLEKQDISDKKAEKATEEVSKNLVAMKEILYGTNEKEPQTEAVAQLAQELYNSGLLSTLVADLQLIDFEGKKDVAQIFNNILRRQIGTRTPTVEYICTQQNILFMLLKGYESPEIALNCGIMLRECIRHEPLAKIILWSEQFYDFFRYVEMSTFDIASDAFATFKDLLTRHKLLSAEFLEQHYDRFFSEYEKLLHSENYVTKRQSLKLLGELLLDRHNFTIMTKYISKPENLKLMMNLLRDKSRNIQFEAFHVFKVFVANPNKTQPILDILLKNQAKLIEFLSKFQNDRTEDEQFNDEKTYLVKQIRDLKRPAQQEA
T4 sequence (Q7RTN6 59-431): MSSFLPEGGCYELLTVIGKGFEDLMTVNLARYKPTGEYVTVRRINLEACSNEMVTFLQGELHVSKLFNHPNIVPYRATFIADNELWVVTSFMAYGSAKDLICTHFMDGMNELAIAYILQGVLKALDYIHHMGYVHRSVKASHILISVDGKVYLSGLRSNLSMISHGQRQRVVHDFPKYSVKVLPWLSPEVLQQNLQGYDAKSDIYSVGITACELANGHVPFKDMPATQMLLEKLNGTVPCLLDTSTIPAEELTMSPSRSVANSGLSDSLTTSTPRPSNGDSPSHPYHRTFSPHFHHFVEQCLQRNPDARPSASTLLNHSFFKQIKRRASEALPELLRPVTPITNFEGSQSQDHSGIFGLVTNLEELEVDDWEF
Description: as §1, §2, §3

T3 sequence (Q9Y376 whole entry R227A/M260A, one chain of several, the tested form may be a part): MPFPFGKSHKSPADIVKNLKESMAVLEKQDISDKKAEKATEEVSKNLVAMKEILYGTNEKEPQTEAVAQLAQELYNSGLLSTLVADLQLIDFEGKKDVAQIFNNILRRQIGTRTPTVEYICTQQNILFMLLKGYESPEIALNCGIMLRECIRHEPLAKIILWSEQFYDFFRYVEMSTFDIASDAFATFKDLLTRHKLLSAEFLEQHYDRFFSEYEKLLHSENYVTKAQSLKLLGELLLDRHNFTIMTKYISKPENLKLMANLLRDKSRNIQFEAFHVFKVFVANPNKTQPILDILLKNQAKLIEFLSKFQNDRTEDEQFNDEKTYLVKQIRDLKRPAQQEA

B1: STRADα: STRADα pseudokinase (residues 59–431), His tag removed, analyte injected over immobilised MO25α in SPR (protein)
chain: MSSFLPEGGCYELLTVIGKGFEDLMTVNLARYKPTGEYVTVRRINLEACSNEMVTFLQGELHVSKLFNHPNIVPYRATFIADNELWVVTSFMAYGSAKDLICTHFMDGMNELAIAYILQGVLKALDYIHHMGYVHRSVKASHILISVDGKVYLSGLRSNLSMISHGQRQRVVHDFPKYSVKVLPWLSPEVLQQNLQGYDAKSDIYSVGITACELANGHVPFKDMPATQMLLEKLNGTVPCLLDTSTIPAEELTMSPSRSVANSGLSDSLTTSTPRPSNGDSPSHPYHRTFSPHFHHFVEQCLQRNPDARPSASTLLNHSFFKQIKRRASEALPELLRPVTPITNFEGSQSQDHSGIFGLVTNLEELEVDDWEF
modifications: left off: His6 with TEV site (…), N-terminal, cleaved
notes: STRADα pseudokinase (residues 59–431), His tag removed, analyte injected over immobilised MO25α in SPR
With B1 the kd1 (MO25α (M260A); + ATP + Mg2+) was 0.43 (1.7 × 10−3) s−1, the kd2 (MO25α (M260A); + ATP + Mg2+) was 0.05 (2.3 × 10−4) s−1 and the kd1 (MO25α (M260A); no ATP) was 0.92 (3.0 × 10−3) s−1. The kd1 (MO25α (R227A); + ATP + Mg2+) was 0.72 (2.0 × 10−3) s−1, the “binding of STRADα observed by SPR” value (MO25α (R227A); in the absence of ATP) was “virtually abolished binding” and the “interaction with STRADα” value (MO25α (R227A/M260A)) was “failed to interact”. For the same molecule, the Kd (MO25α (WT); + 0.1 mM ATP, Kd = kd/ka, read-out: Kd1) was 2500 nM, the kd1 (MO25α (WT); + ATP + Mg2+) was 0.43 (1.4 × 10−3) s−1 and the kd2 (MO25α (WT); + ATP + Mg2+) was 0.04 (8.8 × 10−5) s−1. For the same molecule, the Hill slope (MO25α (WT); in the presence of ATP, two-site binding) was 0.4, the Kd (MO25α (WT); in the presence of ATP, read-out: second binding constant (Kd2)) was 12 nM and the kd1 (MO25α (WT); no ATP) was 0.63 (3.0 × 10−3) s−1. It also gave a Kd (MO25α (WT); no ATP, Kd = kd/ka, read-out: Kd1) of 3800 nM.
